Data published in paper PMC3597688 (Nucleic Acids Research, 2013).
Several values for one entry are separate records, joined by “and”; a condition that tells them apart may be missing. Equal entries are not always repeated.

How the values were obtained:
SEC = molecular target: the molecule itself; assay: SEC
[1] = molecular target: the molecule itself; assay: negative-stain electron microscopy and electron tomography

B1: ssoMCM F540A mutant (full length) (natural protein, Sulfolobus solfataricus, UniProt Q9UXG1 1-686, looked up)
chain: MEIPSKQIDYRDVFIEFLTTFKGNNNQNKYIERINELVAYRKKSLIIEFSDVLSFNENLAYEIINNTKIILPILEGALYDHILQLDPTYQRDIEKVHVRIVGIPRVIELRKIRSTDIGKLITIDGILVKVTPVKERIYKATYKHIHPDCMQEFEWPEDEEMPEVLEMPTICPKCGKPGQFRLIPEKTKLIDWQKAVIQERPEEVPSGQLPRQLEIILEDDLVDSARPGDRVKVTGILDIKQDSPVKRGSRAVFDIYMKVSSIEVSQKVLDEVIISEEDEKKIKDLAKDPWIRDRIISSIAPSIYGHWELKEALALALFGGVPKVLEDTRIRGDIHILIIGDPGTAKSQMLQFISRVAPRAVYTTGKGSTAAGLTAAVVREKGTGEYYLEAGALVLADGGIAVIDEIDKMRDEDRVAIHEAMEQQTVSIAKAGIVAKLNARAAVIAAGNPKFGRYISERPVSDNINLPPTILSRFDLIFILKDQPGEQDRELANYILDVHSGKSTKNIIDIDTLRKYIAYARKYVTPKITSEAKNLITDFAVEMRKKSSETPDSPILITPRQLEALIRISEAYAKMALKAEVTREDAERAINIMRLFLESVGVDMESGKIDIDTIMTGKPKSAREKMMKIIEIIDSLAVSSECAKVKDILKEAQQVGIEKSNIEKLLTDMRKSGIIYEAKPECYKKV
Q: What does the source list for B1?
A: stoichiometry N (SEC): ~3; stoichiometry N [1]: 6 and 8

B2: ssoMCM G485P/G501P mutant (alpha5-linker mutant, full length) (natural protein, Sulfolobus solfataricus, UniProt Q9UXG1 1-686, looked up)
chain: MEIPSKQIDYRDVFIEFLTTFKGNNNQNKYIERINELVAYRKKSLIIEFSDVLSFNENLAYEIINNTKIILPILEGALYDHILQLDPTYQRDIEKVHVRIVGIPRVIELRKIRSTDIGKLITIDGILVKVTPVKERIYKATYKHIHPDCMQEFEWPEDEEMPEVLEMPTICPKCGKPGQFRLIPEKTKLIDWQKAVIQERPEEVPSGQLPRQLEIILEDDLVDSARPGDRVKVTGILDIKQDSPVKRGSRAVFDIYMKVSSIEVSQKVLDEVIISEEDEKKIKDLAKDPWIRDRIISSIAPSIYGHWELKEALALALFGGVPKVLEDTRIRGDIHILIIGDPGTAKSQMLQFISRVAPRAVYTTGKGSTAAGLTAAVVREKGTGEYYLEAGALVLADGGIAVIDEIDKMRDEDRVAIHEAMEQQTVSIAKAGIVAKLNARAAVIAAGNPKFGRYISERPVSDNINLPPTILSRFDLIFILKDQPPEQDRELANYILDVHSPKSTKNIIDIDTLRKYIAYARKYVTPKITSEAKNLITDFFVEMRKKSSETPDSPILITPRQLEALIRISEAYAKMALKAEVTREDAERAINIMRLFLESVGVDMESGKIDIDTIMTGKPKSAREKMMKIIEIIDSLAVSSECAKVKDILKEAQQVGIEKSNIEKLLTDMRKSGIIYEAKPECYKKV
Q: Which “stoichiometry N” value (SEC) does the source give for B2 here?
A: The value was roughly 3.
